Test results taken from patent US7888089B2, “eNOS mutations useful for gene therapy and therapeutic screening” (Yale University, priority 1999, dated 2011).
“Also recorded” adds a separate entry of the source. Read-outs that look alike come from different tables or passages of the source.

Tests used:
[1] = system: eNOS; assay: Hemoglobin capture assay of NO production by purified eNOS; type: biochemical, bovine; conditions: for Kcat (substrate Arginine, Hemoglobin capture): rate of NO production vs L-arginine, optimal conditions
Method: Assay for NOS Activity—NO production was measured by the hemoglobin capture assay as described (Kelm et al., 1988). Briefly, the reaction mixture contained eNOS (0.5-2.5 μg), oxyhemoglobin (8 μM), L-arginine (100 μM), BH4 (5 μM), CaCl2 (120 μM), calmodulin (120-200 nM), and NADPH (100 μM) in HEPES buffer (50 mM), pH 7.4. […] Under these conditions, free calcium was calculated using the WinMAXC program, version
NOS activity was monitored for linearity over 2 min at 401 nm, and NO production was calculated based on the change of absorbance using the extinction coefficient of 60 mM^−1 cm^−1. All reactions were carried out at 23° C., and each data point represents 3-8 observations. The extinction coefficient of 0.0033 μM^−1 cm^−1 at 276 nm was used for determination of calmodulin concentration. […] When the inactivation of eNOS was determined by the addition of EGTA (200-800 μM) to the reaction mixture, chelator was added 1 min after initiation of the reaction by NADPH. Identical conditions were used when NADPH-cytochrome c reductase activity was examined. These reactions contained CaM (120 nM) and CaCl2 (200 μM) in a 0.5-ml volume with eNOS (0.5 μg).

[2] = system: eNOS; assay: Conversion of L-arginine to L-citrulline by purified eNOS; type: biochemical, bovine; conditions: for Kcat (CaM, L-Citrulline): CaM activation of NOS activity
Method: The conversion of L-arginine to L-citrulline was assayed as described previously by Bredt et al. (1990). Briefly, eNOS (0.25-2 μg) was incubated for 3-10 min at 23° C. in the following reaction mixture: 3 pmol of L-[3H]arginine (55 Ci/mmol), 10-300 μM arginine, 1 mM NADPH, 120-200 nM calmodulin, 2 mM CaCl2, and 30 μM BH4 in a final reaction volume of 50-100 μl. The reaction was terminated by the addition of 0.5 ml of 20 mM HEPES, pH 5.5, containing 2 mM EGTA and EDTA. The reaction mixture was placed over Dowex AG50WX8, and the flow-through was counted on a Packard 1500 liquid scintillation analyzer.

[3] = system: cytochrome c; assay: NADPH-cytochrome c reductase activity of purified eNOS; type: biochemical; conditions: for Kcat (CaM, Cytochrome c): CaM activation of cytochrome c reduction; for EC50: cytochrome c reduction; for Km: Km for NADPH; for Kcat − CaM (NADPH, Cytochrome c) / Kcat + CaM (NADPH, Cytochrome c): NADPH dependence
Method: Assays for Reductase Activity—NADPH-cytochrome c reductase activity and 2,6-dichlorophenolindophenol (DCIP) reduction were measured as a change in absorbance at 550 nm as described previously by Martasek et al. (1999) and Masters et al. (1967) using an extinction coefficient of 0.021 μM^−1 cm^−1 for both cytochrome c and DCIP. Briefly, a reaction mixture (1 ml) contained either cytochrome c (90 μM); DCIP (36 μM), HEPES buffer (50 mM) at pH 7.6, NaCl (250 mM), NADPH (100 μM), calmodulin (120 nM), and CaCl2 (200 μM); or other substances as indicated. The reaction was monitored for 60 s (at 23° C.) after the addition of eNOS. When inactivation of reductase activity was determined by the addition of EGTA (200-800 μM), chelator was added 1 min after initiation of the reaction and monitored for an additional 1 min. The reaction contained HEPES buffer (50 mM) at pH 7.6, CaM (120 nM), and CaCl2 (200 μM) and was initiated with NADPH (100 μM). No NaCl was added in experiments that examined EGTA inactivation of eNOS to mimic the conditions used in the hemoglobin capture experiments. […] Determination of the calcium EC50 for eNOS was performed as described above for the hemoglobin capture assay.

[4] = system: eNOS; assay: NOS activity (3H-L-arginine to 3H-L-citrulline) in COS cell lysates; type: biochemical, bovine; conditions: COS cells transfected with eNOS only, n=3
From the text: NOS activity assays: The conversion of ^3H-L-arginine to ^3H-L-citrulline was used to determine NOS activity in COS cell or endothelial cell lysates as previously described by Garcia-Cardena et al. (1998).

[5] = system: Akt; assay: 32P phosphorylation of eNOS in intact transfected COS cells; type: cell-based; conditions: intact COS cells, 32P-orthophosphate
Method: Phosphorylation studies in vivo and in vitro: For in vivo phosphorylation studies, COS cells were transfected with the cDNAs for wild-type or S635, 1179A eNOS and HA-Akt overnight. 36 hrs after transfection, cells were placed into dialyzed serum replete, phosphate-free Dulbecco's minimum essential medium supplemented with 80 μCi/ml of ^32P orthophosphoric acid for 3 hr. Some cells were pretreated with wortmannin (500 nM) in the phosphate-free media for 1 hr and during the labeling.

B1: Wild type: Wild type bovine endothelial nitric oxide synthase (eNOS) (protein, UniProt P29473 2-1205, looked up)
Nitric oxide synthase 3: GNLKSVGQEPGPPCGLGLGLGLGLCGKQGPASPAPEPSRAPAPATPHAPDHSPAPNSPTLTRPPEGPKFPRVKNWELGSITYDTLCAQSQQDGPCTPRCCLGSLVLPRKLQTRPSPGPPPAEQLLSQARDFINQYYSSIKRSGSQAHEERLQEVEAEVASTGTYHLRESELVFGAKQAWRNAPRCVGRIQWGKLQVFDARDCSSAQEMFTYICNHIKYATNRGNLRSAITVFPQRAPGRGDFRIWNSQLVRYAGYRQQDGSVRGDPANVEITELCIQHGWTPGNGRFDVLPLLLQAPDEAPELFVLPPELVLEVPLEHPTLEWFAALGLRWYALPAVSNMLLEIGGLEFSAAPFSGWYMSTEIGTRNLCDPHRYNILEDVAVCMDLDTRTTSSLWKDKAAVEINLAVLHSFQLAKVTIVDHHAATVSFMKHLDNEQKARGGCPADWAWIVPPISGSLTPVFHQEMVNYILSPAFRYQPDPWKGSATKGAGITRKKTFKEVANAVKISASLMGTLMAKRVKATILYASETGRAQSYAQQLGRLFRKAFDPRVLCMDEYDVVSLEHEALVLVVTSTFGNGDPPENGESFAAALMEMSGPYNSSPRPEQHKSYKIRFNSVSCSDPLVSSWRRKRKESSNTDSAGALGTLRFCVFGLGSRAYPHFCAFARAVDTRLEELGGERLLQLGQGDELCGQEEAFRGWAKAAFQASCETFCVGEEAKAAAQDIFSPKRSWKRQRYRLSTQAEGLQLLPGLIHVHRRKMFQATVLSVENLQSSKSTRATILVRLDTAGQEGLQYQPGDHIGICPPNRPGLVEALLSRVEDPPPPTESVAVEQLEKGSPGGPPPSWVRDPRLPPCTLRQALTFFLDITSPPSPRLLRLLSTLAEEPSEQQELETLSQDPRRYEEWKWFRCPTLLEVLEQFPSVALPAPLLLTQLPLLQPRYYSVSSAPNAHPGEVHLTVAVLAYRTQDGLGPLHYGVCSTWLSQLKTGDPVPCFIRGAPSFRLPPDPYVPCILVGPGTGIAPFRGFWQERLHDIESKGLQPAPMTLVFGCRCSQLDHLYRDEVQDAQERGVFGRVLTAFSREPDSPKTYVQDILRTELAAEVHRVLCLERGHMFVCGDVTMATSVLQTVQRILATEGDMELDEAGDVIGVLRDQQRYHEDIFGLTLRTQEVTSRIRTQSFSLQERHLRGAVPWAFDPPGPDTPGP
NO production after calcium chelation with EGTA ([1]; 600 μM EGTA, 200 μM calcium, listed as wild type eNOS): no activity was detected; also recorded: no detectable activity
EC50 ([1]; EC50 for free calcium, NO production, 250 nM CaM, read-out: EC50 (Ca2+, Hemoglobin capture, 100 mM KCl)): 310 nM
Km ([1]; Km for L-arginine, read-out: Km (substrate Arginine, Hemoglobin capture)): 1.8 µM
Km ([1]; Km for NADPH, in presence of CaM, read-out: Km (NADPH, Hemoglobin capture)): 8 µM
Kcat (NADPH, Hemoglobin capture) ([1]; NADPH dependence, in presence of CaM): 0.283 ± 0.017 s⁻¹
Kcat (Ca2+, Hemoglobin capture, 100 mM KCl) ([1]; calcium activation, 250 nM CaM): 0.967 ± 0.017 s⁻¹
maximal turnover rate, FIG. 8C ([1]; calcium-dependent NO production): 58 min1
maximal turnover rate, FIG. 8A ([1]; calmodulin-dependent hemoglobin capture): 22 min⁻¹
Kcat (substrate Arginine, Hemoglobin capture) [1]: 0.45 ± 0.017 s⁻¹
Kcat (substrate Arginine, Hemoglobin capture) ([1]; listed as wild type): 0.45 ± 0.017 s⁻¹
Kcat (CaM, L-Citrulline) [2]: 0.367 ± 0.033 s⁻¹
Kcat (CaM, L-Citrulline) ([2]; listed as wild type): 0.367 s⁻¹
EC50 ([2]; EC50 for CaM, NOS activity): 8 nM
Kcat (CaM, Cytochrome c) [3]: 10.3 ± 1.3 s⁻¹
Kcat (CaM, Cytochrome c) ([3]; listed as wild type eNOS): 10.3 s⁻¹
EC50 ([3]; EC50 for CaM, listed as wild type, read-out: EC50 (CaM, Cytochrome c)): 21 nM
EC50 ([3]; EC50 for CaM, read-out: EC50 (CaM, Cytochrome c)): 13 nM
EC50 ([3]; EC50 for free calcium, read-out: EC50 (Ca2+, Cytochrome c, 100 mM KCl)): 290 nM
Km ([3]; absence of CaM): 0.4 µM
Km ([3]; presence of CaM): 0.75 µM
Kcat − CaM (NADPH, Cytochrome c) ([3]; absence of CaM): 1.17 ± 0.083 s⁻¹
Kcat − CaM (NADPH, Cytochrome c) ([3]; absence of CaM, listed as wild type eNOS): 1.17 s⁻¹
Kcat + CaM (NADPH, Cytochrome c) ([3]; presence of CaM): 7.67 ± 0.3 s⁻¹
Kcat + CaM (NADPH, Cytochrome c) ([3]; presence of CaM, listed as wild type eNOS): 7.67 s⁻¹
cytochrome c reduction, first value of pair (with superoxide dismutase) ([3]; absence of CaM): 86 ± 6 min⁻¹
cytochrome c reduction, second value of pair (without superoxide dismutase) ([3]; absence of CaM): 95 ± 8 min⁻¹
Kcat (Ca2+, Cytochrome c, 100 mM KCl) ([3]; calcium activation): 31.82 ± 0.55 s⁻¹
maximal turnover rate, FIG. 8D ([3]; calcium-dependent cytochrome c reduction): 1930 min⁻¹
maximal turnover rate, FIG. 8B ([3]; calmodulin-dependent cytochrome c reduction): 620 min1
reductase activity after calcium chelation with EGTA ([3]; highest concentration of EGTA): residual reductase activity was found
cytochrome c reduction with superoxide dismutase ([3]; presence of CaM): 610 ± 51 min⁻¹
cytochrome c reduction without superoxide dismutase ([3]; presence of CaM): 866 ± 8 min⁻¹
relative decrease in cytochrome c activity in the presence of superoxide dismutase ([3]; presence of CaM): 30%
CaM-stimulated cytochrome c reduction ([3]; presence of CaM, n=3-5): 749 ± 35 min⁻¹
level of stimulation of cytochrome c reduction by CaM ([3]; with vs without CaM): 8 fold
NOS activity in lysates [4]: 85.3±27.0 pmol L-citrulline generated/mg protein
enhancement in phosphorylation on co-expression of Akt relative to non-stimulated cells [5]: 2 fold
